± gives the standard error.
B1: library; numbered along this chain (parent)
chain: MATDAALRRLLRLHRTEIAVAVDSAFPLLHALADHDVVPEDKFQETLHLKEKEGCPQAFHALLSWLLTQDSTAILDFWRVLFKDYNLERYGRLQPILDSFPKDVDLSQPRKGRKPPAVPKALVPPPRLPTKRKASEEARAAAPAALTPRGTASPGSQLKAKPPKKPESSAEQQRLPLGNGIQTMSASVQRAVAMSSGDVPGARGAVEGILIQQVFESGGSKKCIQVGGEFYTPSKFEDSGSGKNKARSSSGPKPLVRAKGAQGAAPGGGEARLGQQGSVPAPLALPSDPQLHQKNEDECAVCRDGGELICCDGCPRAFHLACLSPPLREIPSGTWRCSSCLQATVQEVQPRAEEPRPQEPPVETPLPPGLRSAGEEVRGPPGEPLAGMDTTLVYKHLPAPPSAAPLPGLDSSALHPLLCVGPEGQQNLAPGARCGVCGDGTDVLRCTHCAAAFHWRCHFPAGTSRPGTGLRCRSCSGDVTPAPVEGVLAPSPARLAPGPAKDDTASHEPALHRDDLESLLSEHTFDGILQWAIQSMARPAAPFPS

Variants of: B1
Test: AIRE transcriptional activation functional score (insulin promoter-GFP; nonsense median 0, synonymous median 1) (normalised score); higher = higher AIRE activity (more reporter activation)
Details: with insulin promoter-GFP reporter in HEK293
Method in brief: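 Functional scores come from comparing select with non-select enrichment of each variant and subtracting wild type. Codon-optimized AIRE NNN-codon libraries across three regions were integrated via Bxb1 recombinase into HEK293 landing-pad cells with an insulin core promoter-GFP reporter, and integrants sorted at day 7 were expanded 7 days before top 10% GFP and unselected populations were tile-sequenced. Variants needed 10 counts per million in non-select, and values were rescaled to nonsense median 0 and synonymous median 1 before averaging over biological replicates.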

First: Q276P
Second: L62Q
The “AIRE transcriptional activation functional score” value of the first is higher: 1.05 ± 0.092 for the first, 0.0502 ± 0.23 for the second.

Going from A450N to G306Y, the “AIRE transcriptional activation functional score” value falls from 1.35 ± 0.14 to 0.924 ± 0.035.

P286N and L392H are within error of each other in “AIRE transcriptional activation functional score” value: 0.454 ± 0.077 for the first, 0.636 ± 0.29 for the second.

A510W and A537K are within error of each other in “AIRE transcriptional activation functional score” value: 0.663 ± 0.12 for the first, 0.346 ± 0.28 for the second.

First: K133W
Second: K111W
The “AIRE transcriptional activation functional score” value of the first is lower: -0.155 ± 0.076 for the first, 0.591 ± 0.065 for the second.

Compared with L32H, G219P is higher in “AIRE transcriptional activation functional score” value: -0.413 ± 0.21 for the first, 0.556 ± 0.43 for the second.

Compared with P115K, P115M is higher in “AIRE transcriptional activation functional score” value: -0.166 ± 0.74 for the first, 0.979 ± 0.15 for the second.

Going from G228L to E359K, the “AIRE transcriptional activation functional score” value rises from -1.11 ± 0.33 to 0.82 ± 0.099.

Q57E and I96D are within error of each other in “AIRE transcriptional activation functional score” value: 0.685 ± 0.54 for the first, -0.0149 ± 0.2 for the second.

Compared with L488V, H415W is lower in “AIRE transcriptional activation functional score” value: 1.09 ± 0.29 for the first, 0.671 ± 0.12 for the second.

H415R and R110F are within error of each other in “AIRE transcriptional activation functional score” value: 0.811 ± 0.36 for the first, 0.927 ± 0.37 for the second.

I74D and I74Q are within error of each other in “AIRE transcriptional activation functional score” value: 0.058 ± 0.41 for the first, 0.136 ± 0.17 for the second.

H512F and H512L are within error of each other in “AIRE transcriptional activation functional score” value: 1.21 ± 0.074 for the first, 0.941 ± 0.28 for the second.

G374K and P368R are within error of each other in “AIRE transcriptional activation functional score” value: 0.524 ± 0.58 for the first, 1.04 ± 0.22 for the second.

M184V and M184F are within error of each other in “AIRE transcriptional activation functional score” value: 0.51 ± 0.29 for the first, 0.676 ± 0.1 for the second.

Going from D503L to K83F, the “AIRE transcriptional activation functional score” value falls from 1 ± 0.25 to 0.177 ± 0.099.

P490R and A493M are within error of each other in “AIRE transcriptional activation functional score” value: 1.07 ± 0.2 for the first, 1.19 ± 0.073 for the second.

A493I and A493D are within error of each other in “AIRE transcriptional activation functional score” value: 1.04 ± 0.29 for the first, 0.802 ± 0.12 for the second.

R272I and P483A are within error of each other in “AIRE transcriptional activation functional score” value: 1.08 ± 0.23 for the first, 0.722 ± 0.33 for the second.

T16I and T16C are within error of each other in “AIRE transcriptional activation functional score” value: -0.0145 ± 0.17 for the first, 0.227 ± 0.26 for the second.

T16Y and T447E are within error of each other in “AIRE transcriptional activation functional score” value: 0.309 ± 0.36 for the first, 0.425 ± 0.056 for the second.

Compared with L106I, L63N is higher in “AIRE transcriptional activation functional score” value: -1.62 ± 0.095 for the first, 0.0814 ± 0.2 for the second.

First: E171M
Second: V80M
The “AIRE transcriptional activation functional score” value of the first is higher: 2.07 ± 0.032 for the first, 0.629 ± 0.25 for the second.

V80L and D526S are within error of each other in “AIRE transcriptional activation functional score” value: 0.613 ± 1.2 for the first, -0.0693 ± 0.36 for the second.

First: D526A
Second: F82K
The “AIRE transcriptional activation functional score” value of the first is higher: 0.225 ± 0.1 for the first, -0.492 ± 0.079 for the second.

D288L and W335N are within error of each other in “AIRE transcriptional activation functional score” value: 1.19 ± 0.34 for the first, 0.721 ± 0.19 for the second.

W335Y and V256S are within error of each other in “AIRE transcriptional activation functional score” value: 0.768 ± 0.46 for the first, 1.07 ± 0.23 for the second.

Compared with H319Y, K164R is higher in “AIRE transcriptional activation functional score” value: 0.961 ± 0.06 for the first, 1.85 ± 0.55 for the second.

I309C and P39H are within error of each other in “AIRE transcriptional activation functional score” value: 0.782 ± 0.19 for the first, 0.277 ± 0.43 for the second.

First: G435H
Second: G435K
The “AIRE transcriptional activation functional score” value of the first is lower: 0.284 ± 0.12 for the first, 1.2 ± 0.13 for the second.

First: T504N
Second: G267P
The “AIRE transcriptional activation functional score” value of the first is lower: 0.713 ± 0.15 for the first, 0.902 ± 0.036 for the second.

Compared with G267A, A25Q is lower in “AIRE transcriptional activation functional score” value: 0.9 ± 0.2 for the first, 0.196 ± 0.14 for the second.

G486C and G486L are within error of each other in “AIRE transcriptional activation functional score” value: 0.625 ± 0.26 for the first, 1.03 ± 0.4 for the second.

Compared with L11W, S248L is higher in “AIRE transcriptional activation functional score” value: 0.256 ± 0.083 for the first, 1.11 ± 0.31 for the second.

Going from E423I to L516K, the “AIRE transcriptional activation functional score” value falls from 1.05 ± 0.21 to 0.259 ± 0.031.

Compared with R328L, R328H is lower in “AIRE transcriptional activation functional score” value: 1.08 ± 0.21 for the first, -0.256 ± 0.33 for the second.

D478K and P499S are within error of each other in “AIRE transcriptional activation functional score” value: 0.926 ± 0.088 for the first, 1.1 ± 0.15 for the second.

Going from P499K to C340R, the “AIRE transcriptional activation functional score” value rises from 0.747 ± 0.17 to 1.31 ± 0.1.

First: E237Q
Second: C457A
The “AIRE transcriptional activation functional score” value of the first is higher: 1.03 ± 0.043 for the first, 0.0339 ± 0.14 for the second.

First: C457Y
Second: A403M
The “AIRE transcriptional activation functional score” value of the first is lower: 0.105 ± 0.083 for the first, 1.38 ± 0.064 for the second.

Compared with Q213H, A452E is higher in “AIRE transcriptional activation functional score” value: 1.15 ± 0.16 for the first, 1.54 ± 0.056 for the second.

A452H and A452T are within error of each other in “AIRE transcriptional activation functional score” value: 0.816 ± 0.12 for the first, 0.973 ± 0.13 for the second.
